IntAct's records for PubMed 23825108

Molecular target: mmac_human MMACHC (UniProt Q9Y4U1)
Sequence (Q9Y4U1 whole entry): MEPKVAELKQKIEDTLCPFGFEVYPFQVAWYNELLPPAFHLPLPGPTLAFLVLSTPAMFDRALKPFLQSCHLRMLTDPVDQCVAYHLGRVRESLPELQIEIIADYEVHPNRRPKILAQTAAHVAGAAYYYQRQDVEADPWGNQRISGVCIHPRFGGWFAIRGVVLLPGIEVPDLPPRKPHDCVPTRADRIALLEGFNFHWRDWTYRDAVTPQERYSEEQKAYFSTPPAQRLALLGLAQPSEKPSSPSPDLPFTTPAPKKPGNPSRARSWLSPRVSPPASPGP

Sequence of Methionine synthase (Homo sapiens), Q99707 P1173L (Q99707 whole entry P1173L): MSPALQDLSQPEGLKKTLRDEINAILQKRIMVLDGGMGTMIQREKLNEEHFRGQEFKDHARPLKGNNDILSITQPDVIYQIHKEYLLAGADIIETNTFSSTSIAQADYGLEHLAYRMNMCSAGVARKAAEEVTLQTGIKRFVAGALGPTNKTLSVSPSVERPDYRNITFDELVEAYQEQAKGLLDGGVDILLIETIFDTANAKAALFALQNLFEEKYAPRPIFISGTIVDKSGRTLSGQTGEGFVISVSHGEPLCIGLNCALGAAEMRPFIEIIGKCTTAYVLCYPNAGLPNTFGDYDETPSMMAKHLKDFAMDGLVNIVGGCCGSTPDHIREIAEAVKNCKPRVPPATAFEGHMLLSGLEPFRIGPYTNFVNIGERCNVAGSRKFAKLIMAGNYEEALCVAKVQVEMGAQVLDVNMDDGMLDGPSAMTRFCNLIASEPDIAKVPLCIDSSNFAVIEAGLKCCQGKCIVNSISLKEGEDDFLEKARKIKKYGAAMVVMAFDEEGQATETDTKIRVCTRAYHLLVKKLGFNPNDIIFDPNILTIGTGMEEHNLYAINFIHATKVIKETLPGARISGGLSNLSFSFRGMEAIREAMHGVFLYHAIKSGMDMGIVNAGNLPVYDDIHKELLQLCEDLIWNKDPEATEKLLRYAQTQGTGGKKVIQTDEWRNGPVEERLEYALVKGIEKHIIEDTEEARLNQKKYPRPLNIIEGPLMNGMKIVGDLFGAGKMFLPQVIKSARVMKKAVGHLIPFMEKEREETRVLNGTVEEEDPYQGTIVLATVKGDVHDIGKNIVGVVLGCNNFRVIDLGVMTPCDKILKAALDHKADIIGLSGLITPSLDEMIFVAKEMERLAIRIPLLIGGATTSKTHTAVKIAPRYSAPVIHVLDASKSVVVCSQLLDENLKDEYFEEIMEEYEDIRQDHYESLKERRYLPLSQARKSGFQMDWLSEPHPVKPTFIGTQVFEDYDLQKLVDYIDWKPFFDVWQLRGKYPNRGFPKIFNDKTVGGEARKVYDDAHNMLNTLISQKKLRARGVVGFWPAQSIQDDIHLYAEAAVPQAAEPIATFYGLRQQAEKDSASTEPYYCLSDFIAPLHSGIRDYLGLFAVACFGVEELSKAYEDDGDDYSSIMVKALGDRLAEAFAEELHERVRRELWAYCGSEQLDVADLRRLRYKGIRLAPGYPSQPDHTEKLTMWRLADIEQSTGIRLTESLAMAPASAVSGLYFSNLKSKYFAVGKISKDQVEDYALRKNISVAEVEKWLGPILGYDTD

effect of a mutation on the interaction: increasing interaction strength
Substance: Methionine synthase (Homo sapiens), Q99707 P1173L
